Patent US20100021390A1, “Fluorescent Analogs Of The Islet Amyloid Polypeptide” (The Research Foundation of State University of New York, priority 2008, published 2010)
Numbering of substitutions follows the chain as printed. Each block holds one molecule with its values, some of them ahead of it.

What was measured:
[1] = Control fluorescence of small p-cyanophenylalanine peptide in solvents and buffer; assay type: physicochemical
From the text: In vitro assays of amyloid formation often involve solubilizing the peptide of interest in a fluorinated alcohol, typically hexafluoroisopropanol (HFIP). The fibrillization reaction is initiated by diluting the stock solution into aqueous buffer. […] A small, soluble p-cyanophenylalanine containing peptide (Gly-PheC≡N-Ala-Ala) was synthesized for the control studies. […] The fluorescence intensity was reduced by approximately 30%.

[2] = Thioflavin-T fluorescence kinetic assay of amyloid (fibril) formation by the peptides; assay type: physicochemical; conditions: 32 μM peptide, 20 mM Tris-HCl, 2% HFIP
From the text: (§1) Wild-type IAPP, IAPP-Y37FC≡N and a G-FCN-A-A tetrapeptide were synthesized and the disulfide bond in IAPP was formed using dimethyl sulfoxide (DMSO) based oxidation as described in Abedini et al., Analytical Biochemistry 351, 181-186 (2006) incorporated herein by reference. The synthesis of peptides is well known in the art. Synthesizers such as the Applied Biosystems 433A are commercially available with ample instructions for use and are generally accessible to practitioners in the art. Fmoc-4-cyanoPhe was obtained from NovaBiochem. Peptides were purified via reverse phase HPLC and the identities confirmed by MALDI mass spectroscopy. Thioflavin-T fluorescence experiments were performed with a Jobin Yvon Horiba fluorescence spectrophotometer or with an Applied Phototechnology fluorescence spectrophotometer. P-cyanoPhe fluorescence was excited at 240 nm and detected at 296 nm with instrument slit widths of 10 nm on an Applied Photon Technologies fluorimeter. […]
(§2) Fibrillization reactions were initiated by diluting the stock 50-fold into buffered (20 mM Tris-HCl, pH 7.4) aqueous solution. […] The spectrum is the average of three repeats in a 0.1 cm quartz cuvette and recorded over a range of 190-250 nm, at 1 nm intervals, with an averaging time of three seconds per scan. […]

hIAPP-Y37FC≡N = target: T1, hIAPP-Y37FC≡N (Homo sapiens, UniProt P10997); assay: p-Cyanophenylalanine fluorescence-detected kinetics of hIAPP-Y37FC≡N amyloid formation in presence and absence of rifampicin; assay type: biochemical; conditions: no rifampicin, 32 μM peptide
T1 construct: hIAPP is 37 residues in length, contains a disulfide bond linking residues 2 and 7 and has an amidated C-terminus; made in house; host or cells: chemical synthesis (Fmoc solid phase; Fmoc-4-cyanoPhe from NovaBiochem)
T1 sequence (P10997 with tags, fused parts or gaps): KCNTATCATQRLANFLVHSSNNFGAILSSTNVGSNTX
Procedure: Thioflavin-T Fluorescence. All fluorescence experiments were performed with a Jobin Yvon Horiba fluorescence spectrophotometer or with an Applied Phototechnology Fluorescence Spectrophotometer. An excitation wavelength of 450 nm and emission wavelength of 485 nm was used for the thioflavin-T studies. The excitation and emission slits were set at 5 nm. A 1.0 cm cuvette was used and each point was averaged for 1 minute. All solutions for these studies were prepared by diluting filtered stock solution (0.45 μm filter) into a Tris-HCl buffer (pH 7.4) and thioflavin-T solution immediately before the measurement. The final concentration was 32 μM peptide and 25 μM thioflavin-T with or without rifampicin in 2% HFIP for all experiments. The final concentration of ascorbic acid used in antioxidant experiments was 83 μM. All solutions were stirred during the fluorescence experiments. P-cyanophenylalanine fluorescence was excited at 240 nm and detected at 296 nm, with both excitation and emission slits of 10 nm.

[3] = p-Cyanophenylalanine fluorescence kinetic assay of amyloid formation by the peptides; assay type: physicochemical; conditions: 32 μM peptide, 20 mM Tris-HCl, 2% HFIP
From the text: as §1, §2

[4] = target: the molecule itself; assay: cell-based or functional assay

- reduction of fluorescence intensity ([1]; 20 mM Tris-HCl): approximately 30%
- fluorescence intensity in water vs 2% HFIP ([1]; water, 2% HFIP, very similar in 100% HFIP): the same
Molecule: Gly-PheC≡N-Ala-Ala

Molecule: KCNTATCATQRLANFLVHSSNNFGAILSSTNVGSNTFC≡N (HELM PEPTIDE1{K.C.N.T.A.T.C.A.T.Q.R.L.A.N.F.L.V.H.S.S.N.N.F.G.A.I.L.S.S.T.N.V.G.S.N.T.[N#Cc1ccc(C[C@H](N[*:1])C(=O)[*:2])cc1].[am]}$PEPTIDE1,PEPTIDE1,2:R3-7:R3$$$V2.0; N-terminus assumed; SMILES CC[C@H](C)[C@H](NC(=O)[C@H](C)NC(=O)CNC(=O)[C@H](Cc1ccccc1)NC(=O)[C@H](CC(N)=O)NC(=O)[C@H](CC(N)=O)NC(=O)[C@H](CO)NC(=O)[C@H](CO)NC(=O)[C@H](Cc1c[nH]cn1)NC(=O)[C@@H](NC(=O)[C@H](CC(C)C)NC(=O)[C@H](Cc1ccccc1)NC(=O)[C@H](CC(N)=O)NC(=O)[C@H](C)NC(=O)[C@H](CC(C)C)NC(=O)[C@H](CCCNC(=N)N)NC(=O)[C@H](CCC(N)=O)NC(=O)[C@@H](NC(=O)[C@H](C)NC(=O)[C@@H]1CSSC[C@H](NC(=O)[C@@H](N)CCCCN)C(=O)N[C@@H](CC(N)=O)C(=O)N[C@@H]([C@@H](C)O)C(=O)N[C@@H](C)C(=O)N[C@@H]([C@@H](C)O)C(=O)N1)[C@@H](C)O)C(C)C)C(=O)N[C@@H](CC(C)C)C(=O)N[C@@H](CO)C(=O)N[C@@H](CO)C(=O)N[C@H](C(=O)N[C@@H](CC(N)=O)C(=O)N[C@H](C(=O)NCC(=O)N[C@@H](CO)C(=O)N[C@@H](CC(N)=O)C(=O)N[C@H](C(=O)N[C@@H](Cc1ccc(C#N)cc1)C(N)=O)[C@@H](C)O)C(C)C)[C@@H](C)O) [hIAPP-Y37FC≡N, human IAPP with Tyr-37 replaced with p-cyanoPhe]
- time of the growth period (20 to 80% completion) by thioflavin-T fluorescence ([2]; pH 7.4): 247 ± 12 s
- midpoint (t50) of amyloid formation as determined by thioflavin-T fluorescence ([2]; pH 7.4, 25° C.): 1,130±100 s
- growth phase (10% to 80% completion) in absence of the drug (hIAPP-Y37FC≡N): 6 min
- t50 time when rifampicin is absent (hIAPP-Y37FC≡N; 2% HFIP, 25° C., pH 7.4): 18 min
- time of the growth period (20 to 80% completion) by p-cyanophenylalanine fluorescence ([3]; pH 7.4): 248 ± 12 s
- midpoint (t50) of amyloid formation as determined by p-cyanophenylalanine fluorescence ([3]; pH 7.4, 25° C.): 1,100±100 s

B1: hIAPP-Y37FC≡N (peptide)
peptide: T1 sequence (P10997 with tags, fused parts or gaps) with X37F
HELM: PEPTIDE1{K.C.N.T.A.T.C.A.T.Q.R.L.A.N.F.L.V.H.S.S.N.N.F.G.A.I.L.S.S.T.N.V.G.S.N.T.[N#Cc1ccc(C[C@H](N[*:1])C(=O)[*:2])cc1].[am]}$PEPTIDE1,PEPTIDE1,2:R3-7:R3$$$V2.0; N-terminus assumed
SMILES: CC[C@H](C)[C@H](NC(=O)[C@H](C)NC(=O)CNC(=O)[C@H](Cc1ccccc1)NC(=O)[C@H](CC(N)=O)NC(=O)[C@H](CC(N)=O)NC(=O)[C@H](CO)NC(=O)[C@H](CO)NC(=O)[C@H](Cc1c[nH]cn1)NC(=O)[C@@H](NC(=O)[C@H](CC(C)C)NC(=O)[C@H](Cc1ccccc1)NC(=O)[C@H](CC(N)=O)NC(=O)[C@H](C)NC(=O)[C@H](CC(C)C)NC(=O)[C@H](CCCNC(=N)N)NC(=O)[C@H](CCC(N)=O)NC(=O)[C@@H](NC(=O)[C@H](C)NC(=O)[C@@H]1CSSC[C@H](NC(=O)[C@@H](N)CCCCN)C(=O)N[C@@H](CC(N)=O)C(=O)N[C@@H]([C@@H](C)O)C(=O)N[C@@H](C)C(=O)N[C@@H]([C@@H](C)O)C(=O)N1)[C@@H](C)O)C(C)C)C(=O)N[C@@H](CC(C)C)C(=O)N[C@@H](CO)C(=O)N[C@@H](CO)C(=O)N[C@H](C(=O)N[C@@H](CC(N)=O)C(=O)N[C@H](C(=O)NCC(=O)N[C@@H](CO)C(=O)N[C@@H](CC(N)=O)C(=O)N[C@H](C(=O)N[C@@H](Cc1ccc(C#N)cc1)C(N)=O)[C@@H](C)O)C(C)C)[C@@H](C)O
- midpoint (t50) of amyloid formation, p-cyanophenylalanine fluorescence [4]: 1100 s
- midpoint (t50) of amyloid formation, thioflavin-T fluorescence [4]: 1130 s

B2: hIAPP-F23FC≡N (peptide)
peptide: T1 sequence (P10997 with tags, fused parts or gaps) with X37Y
HELM: PEPTIDE1{K.C.N.T.A.T.C.A.T.Q.R.L.A.N.F.L.V.H.S.S.N.N.[N#Cc1ccc(C[C@H](N[*:1])C(=O)[*:2])cc1].G.A.I.L.S.S.T.N.V.G.S.N.T.Y.[am]}$PEPTIDE1,PEPTIDE1,2:R3-7:R3$$$V2.0; N-terminus assumed
SMILES: CC[C@H](C)[C@H](NC(=O)[C@H](C)NC(=O)CNC(=O)[C@H](Cc1ccc(C#N)cc1)NC(=O)[C@H](CC(N)=O)NC(=O)[C@H](CC(N)=O)NC(=O)[C@H](CO)NC(=O)[C@H](CO)NC(=O)[C@H](Cc1c[nH]cn1)NC(=O)[C@@H](NC(=O)[C@H](CC(C)C)NC(=O)[C@H](Cc1ccccc1)NC(=O)[C@H](CC(N)=O)NC(=O)[C@H](C)NC(=O)[C@H](CC(C)C)NC(=O)[C@H](CCCNC(=N)N)NC(=O)[C@H](CCC(N)=O)NC(=O)[C@@H](NC(=O)[C@H](C)NC(=O)[C@@H]1CSSC[C@H](NC(=O)[C@@H](N)CCCCN)C(=O)N[C@@H](CC(N)=O)C(=O)N[C@@H]([C@@H](C)O)C(=O)N[C@@H](C)C(=O)N[C@@H]([C@@H](C)O)C(=O)N1)[C@@H](C)O)C(C)C)C(=O)N[C@@H](CC(C)C)C(=O)N[C@@H](CO)C(=O)N[C@@H](CO)C(=O)N[C@H](C(=O)N[C@@H](CC(N)=O)C(=O)N[C@H](C(=O)NCC(=O)N[C@@H](CO)C(=O)N[C@@H](CC(N)=O)C(=O)N[C@H](C(=O)N[C@@H](Cc1ccc(O)cc1)C(N)=O)[C@@H](C)O)C(C)C)[C@@H](C)O
- midpoint (t50) of amyloid formation, p-cyanophenylalanine fluorescence [4]: 982 s
- midpoint (t50) of amyloid formation, thioflavin-T fluorescence [4]: 972 s

B3: hIAPP-F15FC≡N (peptide)
peptide: T1 sequence (P10997 with tags, fused parts or gaps) with X37Y
HELM: PEPTIDE1{K.C.N.T.A.T.C.A.T.Q.R.L.A.N.[N#Cc1ccc(C[C@H](N[*:1])C(=O)[*:2])cc1].L.V.H.S.S.N.N.F.G.A.I.L.S.S.T.N.V.G.S.N.T.Y.[am]}$PEPTIDE1,PEPTIDE1,2:R3-7:R3$$$V2.0; N-terminus assumed
SMILES: CC[C@H](C)[C@H](NC(=O)[C@H](C)NC(=O)CNC(=O)[C@H](Cc1ccccc1)NC(=O)[C@H](CC(N)=O)NC(=O)[C@H](CC(N)=O)NC(=O)[C@H](CO)NC(=O)[C@H](CO)NC(=O)[C@H](Cc1c[nH]cn1)NC(=O)[C@@H](NC(=O)[C@H](CC(C)C)NC(=O)[C@H](Cc1ccc(C#N)cc1)NC(=O)[C@H](CC(N)=O)NC(=O)[C@H](C)NC(=O)[C@H](CC(C)C)NC(=O)[C@H](CCCNC(=N)N)NC(=O)[C@H](CCC(N)=O)NC(=O)[C@@H](NC(=O)[C@H](C)NC(=O)[C@@H]1CSSC[C@H](NC(=O)[C@@H](N)CCCCN)C(=O)N[C@@H](CC(N)=O)C(=O)N[C@@H]([C@@H](C)O)C(=O)N[C@@H](C)C(=O)N[C@@H]([C@@H](C)O)C(=O)N1)[C@@H](C)O)C(C)C)C(=O)N[C@@H](CC(C)C)C(=O)N[C@@H](CO)C(=O)N[C@@H](CO)C(=O)N[C@H](C(=O)N[C@@H](CC(N)=O)C(=O)N[C@H](C(=O)NCC(=O)N[C@@H](CO)C(=O)N[C@@H](CC(N)=O)C(=O)N[C@H](C(=O)N[C@@H](Cc1ccc(O)cc1)C(N)=O)[C@@H](C)O)C(C)C)[C@@H](C)O
- midpoint (t50) of amyloid formation, p-cyanophenylalanine fluorescence [4]: 936 s
- midpoint (t50) of amyloid formation, thioflavin-T fluorescence [4]: 913 s
